Data taken from patent US8828380B2, “Method for the treatment of pulmonary disease and method of producing proteins of use therein” (The United States of America, as represented by the …, priority 2009, dated 2014).

Key:
ART1 = biological target: T1, ART1 (Mus musculus, UniProt Q60935); experiment: Substrate test for ART1
T1 sequence (Q60935 23-290 limits assumed): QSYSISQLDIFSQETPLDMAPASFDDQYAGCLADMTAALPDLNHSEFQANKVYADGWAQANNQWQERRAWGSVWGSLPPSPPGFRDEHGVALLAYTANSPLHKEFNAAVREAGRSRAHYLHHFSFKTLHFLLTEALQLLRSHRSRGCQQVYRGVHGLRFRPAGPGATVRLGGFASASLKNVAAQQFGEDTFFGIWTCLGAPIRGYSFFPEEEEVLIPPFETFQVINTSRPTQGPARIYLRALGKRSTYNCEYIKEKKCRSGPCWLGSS

[1] = Incubation of HPLC-purified mono- and di-ADP-ribosyl-HNP-1 at pH 7 or 9, products analysed by HPLC/MS; type: physicochemical
Procedure: HNP-1 was incubated overnight at 30° C. with 5 mM NAD in 150 μl of 50 mM potassium phosphate, pH 7.5 and ART1. Reactions were terminated by addition of guanidine HCl to a final concentration of 6 M. Products were separated by HPLC and analyzed by mass spectrometry (MS).
HNP-1 was reduced, cleaved by trypsin, and analyzed by reverse phase chromatography-mass spectrometry as described (Paone et al., Proc. Natl. Acad. Sci. USA 99:8231-8235, 2002), except that the reverse phase column was a Zorbax 300SB-C18, 2.1×50 mm, 3.5 micron, and the mass spectrometer was an Agilent model G1969 with a time of flight detector. Mass spectra were deconvoluted with Agilent software MassHunter version 2, and the fraction of each species was calculated from the areas of the deconvoluted peaks.
To verify that ART1 (or an enzymatic contaminant) was not required for ornithine formation, HPLC-purified mono- and di-modified HNP-1 were incubated for 24 hours at 37° C. at pH 7 or 9 and the reaction products were analyzed by HPLC (FIG. 4, Table 1). Di-ADP-ribosylated-HNP-1 degraded to mono-ADP-ribosylated-HNP-1-ornithine of 3940 molecular mass at pH 7 and the amount was greater at pH 9 (FIG. 4A-D). About 50% of di-ADP-ribosylated-HNP-1 degraded to mono-ADP-ribosylated-HNP-1-ornithine at pH 9, with ADP-ribosylated arginine 14 and ornithine at position 24 or ADP-ribosylated arginine 24 and ornithine at position 14.

arginase = biological target: T2, arginase (Homo sapiens, UniProt P05089); experiment: Incubation with manganese-activated arginase, products by amino acid analysis and MS; type: biochemical; details: manganese-activated arginase 0.7 U, pH 9.5, 10 minutes, 37° C.
T2 sequence (P05089 1-322): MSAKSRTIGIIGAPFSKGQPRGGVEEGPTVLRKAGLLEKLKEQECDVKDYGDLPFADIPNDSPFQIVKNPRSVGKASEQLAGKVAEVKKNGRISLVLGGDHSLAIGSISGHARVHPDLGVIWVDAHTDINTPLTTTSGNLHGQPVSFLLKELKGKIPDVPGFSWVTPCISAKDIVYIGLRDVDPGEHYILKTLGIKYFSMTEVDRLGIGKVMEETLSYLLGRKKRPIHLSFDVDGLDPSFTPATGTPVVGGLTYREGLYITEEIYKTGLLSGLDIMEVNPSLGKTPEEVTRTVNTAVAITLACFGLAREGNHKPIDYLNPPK
Procedure: Arginase, found predominantly in liver, catalyzes the hydrolysis of arginine to ornithine in the urea cycle. The enzyme has been reported to require free arginine (Jenkinson et al., Comp. Biochem. Physiol. B Biochem. Mol. Biol. 114:107-132, 1996). HNP-1 was tested as a potential substrate for arginase. HNP-1 (1.4 nmol), mono-ADP-ribosylated-HNP-1 (1 nmol), ADP-ribosylarginine (18 μM), and arginine (5 mM) were each incubated with manganese-activated arginase (0.7 U) at pH 9.5 in 200 μl for 10 minutes at 37° C.

[2] = Non-enzymatic conversion of ADP-ribosylarginine to ornithine, HPLC and amino acid analysis; type: physicochemical

## N=C(N)NCCCCN [agmatine]
ART1
  substrate for ART1: served as substrates

## ADPR-HNP: HNP-1 ADP-ribosylated on arginine 14
[1]; pH 7, time 0 h
  percent of species ADPR-HNP at the end of the incubation: 100%
  percent of species ADPR-HNP-Orn at the end of the incubation: 0%
  percent of species Di-ADPR-HNP at the end of the incubation: 0%
  percent of species Di-Orn-HNP at the end of the incubation: 0%
  percent of species HNP at the end of the incubation: 0%
  percent of species HNP-Orn at the end of the incubation: 0%
[1]; pH 7, time 24 h
  percent of species ADPR-HNP at the end of the incubation: 82 ± 13%
  percent of species ADPR-HNP-Orn at the end of the incubation: 0%
  percent of species Di-ADPR-HNP at the end of the incubation: 0%
  percent of species Di-Orn-HNP at the end of the incubation: 0%
  percent of species HNP at the end of the incubation: 0%
  percent of species HNP-Orn at the end of the incubation: 18 ± 13%
[1]; pH 9, time 0 h
  percent of species ADPR-HNP at the end of the incubation: 100%
  percent of species ADPR-HNP-Orn at the end of the incubation: 0%
  percent of species Di-ADPR-HNP at the end of the incubation: 0%
  percent of species Di-Orn-HNP at the end of the incubation: 0%
  percent of species HNP at the end of the incubation: 0%
  percent of species HNP-Orn at the end of the incubation: 0%
[1]; pH 9, time 24 h
  percent of species ADPR-HNP at the end of the incubation: 61 ± 9%
  percent of species ADPR-HNP-Orn at the end of the incubation: 0%
  percent of species Di-ADPR-HNP at the end of the incubation: 0%
  percent of species Di-Orn-HNP at the end of the incubation: 0%
  percent of species HNP at the end of the incubation: 0%
  percent of species HNP-Orn at the end of the incubation: 39 ± 9%
arginase
  ornithine formation by arginase (substrate or not): ornithine only in the reaction that contained free arginine

## NC(=NCCC[C@H](N)C(=O)O)N[C@H]1O[C@H](COP(=O)(O)OP(=O)(O)OC[C@H]2O[C@@H](n3cnc4c(N)ncnc43)[C@H](O)[C@@H]2O)[C@@H](O)[C@H]1O [ADP-ribosylarginine]
arginase
  ornithine formation by arginase (substrate or not): ornithine only in the reaction that contained free arginine
[2]; 6N HCl, 37° C., 24 hours
  product of incubation in acid: Arginine was cleaved
[2]; incubation at pH 7 or pH 8
  amount of ornithine generated: less than at pH 9
[2]; pH 9, 24 hours, 37° C., amino acid analysis without prior acid hydrolysis
  maximal amount of ornithine, of initial ADP-ribosylarginine: 21%

## N=C(N)NCCC[C@H](N)C(=O)O [arginine]
arginase
  ornithine formation by arginase (substrate or not): ornithine only in the reaction that contained free arginine
[2]; 24 hours, 37° C., 20 mM potassium phosphate pH 9
  ornithine formation after incubation with free ADP-ribose: No ornithine was identified
ART1
  substrate for ART1: served as substrates

## NCCC[C@H](N)C(=O)O [ornithine, Ornithine]
ART1
  substrate for ART1: did not
